# Laboratory results from article PMC2756588.
# T1: Myo5, Q04439
# T1 sequence (Q04439 1072-1160, looked up): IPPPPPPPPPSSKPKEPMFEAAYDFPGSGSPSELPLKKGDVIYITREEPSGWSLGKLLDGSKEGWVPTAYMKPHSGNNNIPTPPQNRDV
# T2: Pin3, Q06449
# T2 sequence (Q06449 53-122, looked up): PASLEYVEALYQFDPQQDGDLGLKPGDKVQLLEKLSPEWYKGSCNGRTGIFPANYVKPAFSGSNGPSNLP
# T3: Boi2, P39969
# T3 sequence (P39969 32-116, looked up): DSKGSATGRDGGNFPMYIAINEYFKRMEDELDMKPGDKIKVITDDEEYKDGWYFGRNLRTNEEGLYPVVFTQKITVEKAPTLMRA
# T4: Lsb4, P32793
# T4 sequence (P32793 402-468, looked up): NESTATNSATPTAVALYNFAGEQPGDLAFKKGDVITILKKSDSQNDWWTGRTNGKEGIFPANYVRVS
# T5: Nbp2, Q12163
# T5 sequence (Q12163 103-180, looked up): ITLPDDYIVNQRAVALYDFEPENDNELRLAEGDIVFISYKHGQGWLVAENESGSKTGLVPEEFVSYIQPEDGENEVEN
# T6: Boi1, P38041
# T6 sequence (P38041 1-86, looked up): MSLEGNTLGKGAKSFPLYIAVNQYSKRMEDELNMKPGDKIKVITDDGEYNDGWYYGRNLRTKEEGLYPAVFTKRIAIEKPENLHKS
# T7: Bbc1, P47068
# T7 sequence (P47068 1-78, looked up): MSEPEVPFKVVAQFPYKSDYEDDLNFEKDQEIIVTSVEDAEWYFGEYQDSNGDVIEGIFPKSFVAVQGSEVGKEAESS
# T8: Sla1-3, P32790
# T8 sequence (P32790 344-424, looked up): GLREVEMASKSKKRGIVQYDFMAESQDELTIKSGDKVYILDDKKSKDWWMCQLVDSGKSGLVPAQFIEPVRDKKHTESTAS
# T9: Lsb3, P43603
# T9 sequence (P43603 385-451, looked up): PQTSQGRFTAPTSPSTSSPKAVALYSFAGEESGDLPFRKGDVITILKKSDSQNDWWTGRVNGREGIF
# T10: Sla1-2, P32790
# T10 sequence (P32790 60-140, looked up): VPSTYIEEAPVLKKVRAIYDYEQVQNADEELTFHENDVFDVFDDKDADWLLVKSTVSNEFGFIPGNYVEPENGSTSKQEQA
# T11: Pex13, P80667
# T11 sequence (P80667 295-386, looked up): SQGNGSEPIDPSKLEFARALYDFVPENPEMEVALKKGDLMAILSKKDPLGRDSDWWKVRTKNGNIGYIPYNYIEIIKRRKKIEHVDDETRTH
# T12: Bzz1-2, P38822
# T12 sequence (P38822 568-633, looked up): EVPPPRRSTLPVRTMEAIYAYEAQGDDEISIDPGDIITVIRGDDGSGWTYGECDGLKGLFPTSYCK
# T13: Hse1, P38753
# T13 sequence (P38753 208-285, looked up): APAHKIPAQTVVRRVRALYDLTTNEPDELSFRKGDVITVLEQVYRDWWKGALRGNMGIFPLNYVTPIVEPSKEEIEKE
# T14: Cdc25, P04821
# T14 sequence (P04821 50-136, looked up): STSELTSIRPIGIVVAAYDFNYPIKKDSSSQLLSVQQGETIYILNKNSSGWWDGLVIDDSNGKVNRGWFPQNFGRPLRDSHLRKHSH
# T15: Cyk3, Q07533
# T15 sequence (Q07533 1-83, looked up): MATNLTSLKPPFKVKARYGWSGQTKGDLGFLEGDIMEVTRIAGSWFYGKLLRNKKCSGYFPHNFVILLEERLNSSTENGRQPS
# T16: Abp1, P15891
# T16 sequence (P15891 535-592, looked up): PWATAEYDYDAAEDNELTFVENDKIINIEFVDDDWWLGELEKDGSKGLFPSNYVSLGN
# T17: Bud14, P27637
# T17 sequence (P27637 247-328, looked up): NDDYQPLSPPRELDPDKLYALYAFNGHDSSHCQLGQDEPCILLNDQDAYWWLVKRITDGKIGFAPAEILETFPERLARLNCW
# T18: Fus1, P11710
# T18 sequence (P11710 432-512, looked up): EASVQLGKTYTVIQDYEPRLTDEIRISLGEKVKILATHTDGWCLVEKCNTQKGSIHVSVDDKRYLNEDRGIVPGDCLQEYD
# T19: Hof1, Q05080
# T19 sequence (Q05080 590-669, looked up): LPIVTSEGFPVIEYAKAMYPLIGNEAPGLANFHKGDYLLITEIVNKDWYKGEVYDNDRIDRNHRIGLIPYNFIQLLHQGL
# T20: Lsb1, P53281
# T20 sequence (P53281 45-122, looked up): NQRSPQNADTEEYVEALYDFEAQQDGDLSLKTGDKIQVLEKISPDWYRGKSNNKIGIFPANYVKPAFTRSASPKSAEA
# T21: Bzz1-1, P38822
# T21 sequence (P38822 478-572, looked up): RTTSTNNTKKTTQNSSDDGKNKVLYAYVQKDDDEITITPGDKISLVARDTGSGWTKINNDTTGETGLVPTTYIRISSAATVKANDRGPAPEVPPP
# Target: Rvs167, P39743
# Assay: SPOT array
# Details: median of control spots 2707
# Chain of Rvs167, P39743 (P39743 419-482): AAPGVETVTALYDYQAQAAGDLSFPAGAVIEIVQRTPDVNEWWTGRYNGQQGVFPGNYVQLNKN
row,SPOT intensity,Binder
1,0,NNNKMRPHLPPLSSG
2,0,NVLRKILEIPLHSFS
3,0,NMLSRPRLAKLPSIR

# Target: T1, Myo5, Q04439
# Assay: SPOT array
# Details: median of control spots 471
row,SPOT intensity,Binder
1,7,NNNKMRPHLPPLSSG
2,0,NVLRKILEIPLHSFS
3,11,NMLSRPRLAKLPSIR

# Target: T2, Pin3, Q06449
# Assay: SPOT array
# Details: median of control spots 2171
row,SPOT intensity,Binder
1,85,NNNKMRPHLPPLSSG
2,0,NVLRKILEIPLHSFS
3,40,NMLSRPRLAKLPSIR

# Target: T3, Boi2, P39969
# Assay: SPOT array
# Details: median of control spots 1161
row,SPOT intensity,Binder
1,0,NNNKMRPHLPPLSSG
2,0,NVLRKILEIPLHSFS
3,2,NMLSRPRLAKLPSIR

# Target: T4, Lsb4, P32793
# Assay: SPOT array
# Details: median of control spots 397
row,SPOT intensity,Binder
1,22,NNNKMRPHLPPLSSG
2,0,NVLRKILEIPLHSFS
3,10,NMLSRPRLAKLPSIR

# Target: T5, Nbp2, Q12163
# Assay: SPOT array
# Details: median of control spots 357
row,SPOT intensity,Binder
1,12,NNNKMRPHLPPLSSG
2,0,NVLRKILEIPLHSFS
3,0,NMLSRPRLAKLPSIR

# Target: T6, Boi1, P38041
# Assay: SPOT array
# Details: median of control spots 1162
row,SPOT intensity,Binder
1,3,NNNKMRPHLPPLSSG
2,6,NVLRKILEIPLHSFS
3,5,NMLSRPRLAKLPSIR

# Target: T7, Bbc1, P47068
# Assay: SPOT array
# Details: median of control spots 796
row,SPOT intensity,Binder
1,0,NNNKMRPHLPPLSSG
2,62,NVLRKILEIPLHSFS
3,54,NMLSRPRLAKLPSIR

# Target: T8, Sla1-3, P32790
# Assay: SPOT array
# Details: median of control spots 5475
row,SPOT intensity,Binder
1,0,NNNKMRPHLPPLSSG
2,0,NVLRKILEIPLHSFS
3,25,NMLSRPRLAKLPSIR

# Target: T9, Lsb3, P43603
# Assay: SPOT array
# Details: median of control spots 406
row,SPOT intensity,Binder
1,1,NNNKMRPHLPPLSSG
2,0,NVLRKILEIPLHSFS
3,2,NMLSRPRLAKLPSIR

# Target: T10, Sla1-2, P32790
# Assay: SPOT array
# Details: median of control spots 712
row,SPOT intensity,Binder
1,0,NNNKMRPHLPPLSSG
2,0,NVLRKILEIPLHSFS
3,1,NMLSRPRLAKLPSIR

# Target: T11, Pex13, P80667
# Assay: SPOT array
# Details: median of control spots 1341
row,SPOT intensity,Binder
1,84,NNNKMRPHLPPLSSG
2,0,NVLRKILEIPLHSFS
3,21,NMLSRPRLAKLPSIR

# Target: T12, Bzz1-2, P38822
# Assay: SPOT array
# Details: median of control spots 4538
row,SPOT intensity,Binder
1,62,NNNKMRPHLPPLSSG
2,5,NVLRKILEIPLHSFS
3,11,NMLSRPRLAKLPSIR

# Target: Bem1-1, P29366
# Assay: SPOT array
# Details: median of control spots 4282
# Chain of Bem1-1, P29366 (P29366 55-141): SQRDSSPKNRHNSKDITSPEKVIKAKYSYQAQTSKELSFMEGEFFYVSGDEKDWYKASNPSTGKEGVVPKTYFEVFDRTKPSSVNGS
row,SPOT intensity,Binder
1,1,NNNKMRPHLPPLSSG
2,2,NVLRKILEIPLHSFS
3,0,NMLSRPRLAKLPSIR

# Target: T13, Hse1, P38753
# Assay: SPOT array
# Details: median of control spots 1727
row,SPOT intensity,Binder
1,24,NNNKMRPHLPPLSSG
2,5,NVLRKILEIPLHSFS
3,216,NMLSRPRLAKLPSIR

# Target: GST
# Assay: SPOT array
# Details: median of control spots 978
row,SPOT intensity,Binder
1,0,NNNKMRPHLPPLSSG
2,0,NVLRKILEIPLHSFS
3,0,NMLSRPRLAKLPSIR

# Target: Myo3, P36006
# Assay: SPOT array
# Details: median of control spots 468
row,SPOT intensity,Binder
1,18,NNNKMRPHLPPLSSG
2,0,NVLRKILEIPLHSFS
3,9,NMLSRPRLAKLPSIR

# Target: Sho1, P40073
# Assay: SPOT array
# Details: median of control spots 1148
# Chain of Sho1, P40073 (P40073 287-367): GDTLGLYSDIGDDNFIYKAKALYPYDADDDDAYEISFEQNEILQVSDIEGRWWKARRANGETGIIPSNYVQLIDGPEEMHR
row,SPOT intensity,Binder
1,61,NNNKMRPHLPPLSSG
2,6,NVLRKILEIPLHSFS
3,38,NMLSRPRLAKLPSIR

# Target: T14, Cdc25, P04821
# Assay: SPOT array
# Details: median of control spots 969
row,SPOT intensity,Binder
1,22,NNNKMRPHLPPLSSG
2,105,NVLRKILEIPLHSFS
3,108,NMLSRPRLAKLPSIR

# Target: T15, Cyk3, Q07533
# Assay: SPOT array
# Details: median of control spots 1451
row,SPOT intensity,Binder
1,0,NNNKMRPHLPPLSSG
2,1,NVLRKILEIPLHSFS
3,1,NMLSRPRLAKLPSIR

# Target: T16, Abp1, P15891
# Assay: SPOT array
# Details: median of control spots 935
row,SPOT intensity,Binder
1,59,NNNKMRPHLPPLSSG
2,7,NVLRKILEIPLHSFS
3,42,NMLSRPRLAKLPSIR

# Target: Bem1-2, P29366
# Assay: SPOT array
# Details: median of control spots 4347
# Chain of Bem1-2, P29366 (P29366 139-227): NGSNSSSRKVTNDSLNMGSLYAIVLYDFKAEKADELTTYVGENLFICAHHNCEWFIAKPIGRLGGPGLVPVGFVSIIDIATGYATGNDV
row,SPOT intensity,Binder
1,16,NNNKMRPHLPPLSSG
2,0,NVLRKILEIPLHSFS
3,18,NMLSRPRLAKLPSIR

# Target: T17, Bud14, P27637
# Assay: SPOT array
# Details: median of control spots 956
row,SPOT intensity,Binder
1,35,NNNKMRPHLPPLSSG
2,31,NVLRKILEIPLHSFS
3,33,NMLSRPRLAKLPSIR

# Target: T18, Fus1, P11710
# Assay: SPOT array
# Details: median of control spots 1200
row,SPOT intensity,Binder
1,1,NNNKMRPHLPPLSSG
2,35,NVLRKILEIPLHSFS
3,12,NMLSRPRLAKLPSIR

# Target: T19, Hof1, Q05080
# Assay: SPOT array
# Details: median of control spots 4086
row,SPOT intensity,Binder
1,1460,NNNKMRPHLPPLSSG
2,0,NVLRKILEIPLHSFS
3,178,NMLSRPRLAKLPSIR

# Target: T20, Lsb1, P53281
# Assay: SPOT array
# Details: median of control spots 388
row,SPOT intensity,Binder
1,81,NNNKMRPHLPPLSSG
2,0,NVLRKILEIPLHSFS
3,59,NMLSRPRLAKLPSIR

# Target: T21, Bzz1-1, P38822
# Assay: SPOT array
# Details: median of control spots 4446
row,SPOT intensity,Binder
1,1,NNNKMRPHLPPLSSG
2,0,NVLRKILEIPLHSFS
3,0,NMLSRPRLAKLPSIR
